Experimental data published in patent publication US20020132976A1, “Immunogenic peptides derived from prostate-specific antigen (PSA) and uses thereof” (priority 2000, published 2002).
Marks after values point to notes of the source that are not given here.

Assays:
[1] = biological target: T1, HLA-A0201 molecules on T2 cells (Homo sapiens, UniProt P04439, D140Y/D185E/D98H/E176V/E277Q/G131W/G231S/I119V/I121R/I166T/I218V/L300P/L318F/N151K/N90K/P208A/P217A/Q86G/Q94H/R138H/R169H/T345S); assay: Capacity of PSA derived peptides to bind and stabilize HLA-A0201 molecules on T2 cells (BB7.2 antibody, flow cytometry); type: cell-based; conditions: for Fluorescence Index (FI): T2 cells; for HLA-A0201 binding as judged by Fluorescence Index (FI) values: membrane-bound HLA-A0201 molecules on T2 cells
T1 construct: endogenous in cells; host or cells: T2 cell line (Dr. Peter Creswell, Yale University)
Experimental: The ability of the PSA derived peptides described in Table 1 to stabilize membrane-bound HLA-A0201 molecule was assessed utilizing the T2 cell line (Dr. Peter Creswell, Yale University). The cell line has been well documented to have a defective TAP (i.e. Transporter for Antigen Processing) transporter function. As a result, the majority of intracellularly generated peptides are not transported into the endoplasmic reticulum and thus are unable to associate with newly synthesized HLA class 1 MHC molecules (i.e. HLA-A0201; Salter, R D and Creswell, P. (1986) EMBO J 5:943). […] The stability of the surface HLA-A0201 molecules can be restored upon interaction with suitable exogenous peptides. The stabilization of the conformation of the class 1 MHC molecules is accompanied by the formation of an immunodominant epitope recognized by a mouse monoclonal antibody (designated BB7.2; American Type Culture Collection (ATCC)). Thus, the detection of this specific epitope is indicative of stable membrane-bound HLA-A0201 molecules loaded with peptide. Subsequent dissociation of peptides from the HLA class 1 MHC molecules results in the loss of BB7.2 monoclonal antibody binding.
T2 cells were propagated in Iscove's complete medium (iscove's medium supplemented with 10% heat-inactivated bovine serum, 120.0 units per ml of penicillin G sodium, 120 μg per ml of streptomycin sulphate, and 0.35 mg per ml of L-glutamine). The ability of PSA peptides (Table 1) to bind and stabilize surface HLA-A0201 molecules on T2 cells was determined utilizing a protocol documented in the art (Deng, Y. (1997) J Immune 158:1507-1515). In essence, 0.5×10^6 T2 cells were incubated with 125.0 μM of the test peptide in 200.0 μl of serum-free culture medium (Iscove's medium supplemented with 120.0 units per ml of penicillin G sodium, 120.0 μg per ml of streptomycin sulphate and 0.35 mg per ml of L-glutamine) overnight at 37° C. Subsequently, cells were washed twice with Iscove's medium (without bovine serum) to remove free PSA peptide. To the cell pellet was added 1.0 ml of complete Iscove's medium (supplemented with fetal bovine serum (10% final)) containing 5.0 μg per ml of brefeldin A (Sigma), 12.5 μg per ml of anisomycin (Sigma) and 5.0 μg per ml of cyclohexamide (Sigma). […] The cells were subsequently incubated 30 min on ice prior to two washes with ice-cold PBA (phosphate buffered saline (pH 7.2) containing 2.0% bovine serum). 100.0 μl of PBA containing 5.0 μg of monoclonal antibody BB7.2 was added to each test sample. The reaction was allowed to proceed on ice for 45 min. Cells were then washed three times with ice-cold PBA. The binding of BB7.2 was detected via the addition of 100.0 μl of PBA containing […] of goat anti-mouse IgG-Fc fluorescein (FITC) conjugate (BETHYL Laboratories Inc.). After a 30 min incubation on ice, cells were twice washed with ice-cold PBA, and twice with ice-cold PBS (pH 7.2). Cells were immediately fixed by the addition of 50.0 μl of 1.0% paraformaldehyde. Samples were analyzed by Flow Cytometry. Results were expressed in units of Fluorescence Index (FI), calculated by the equation: […]
Mean Fluorescence (MF) of experimental sample (peptide treated)−MF of control sample (cells not peptide treated) MF of control sample (cells not peptide treated)
An FI value of 0.5 or greater was deemed to be significant.

[2] = system: A2Kb transgenic mouse; assay: Immunogenicity of PSA peptide in A2Kb transgenic mice (51Cr-release CTL assay); type: in vivo; conditions: 100.0 μg peptide subcutaneously in IFA with I-Ab-restricted peptide; spleenocytes re-stimulated in vitro; 4 hr 51Cr-release, P815-A2Kb targets; FIG. 1
Experimental: The A2Kb transgenic mouse was used to assess the immunogenicity of the HLA-A0201 binding PSA peptides. Mice of the B1O background (transgenic for the A2Kb chimeric gene) were purchased from the Scripps Clinic in California, USA. Mice were injected subcutaneously at the base of the tail with a dose of inoculum prepared by emulsifying 100.0 μg of the test peptide and 100.0 μg of an I-A^b-restricted peptide (described in Milich, D. R. et al. (1987) J. Immune 139: 1223-1231) in incomplete Freund's adjuvant (IFA). Spleens of the experimental animals were collected on the 10th or 11th day post immunization. Spleenocytes of the experimental mice were prepared and cultured to enrich for CTLs before being assessed for effector activity. In vitro re-stimulation of the in vivo generated CTLs was performed by co-culturing in a 25 cm^2 tissue culture flask 3×10^7 responder cells (i.e. spleenocytes) with 1.3×10^7 irradiated autologous LPS (lipopolysaccharide)-blasts which had been pulsed with the respective peptide (100.0 μg per 10^8 cells). Cultures were kept in a 37° C., humidified CO2 incubator for 6-7 days before being tested for effector function in a standard 4 hr in vitro ^51Cr-release CTL assay as follows. The responders were harvested from the 6-7 day cultures and washed twice with RPMI-1640 medium (without bovine serum). […] Supernatant aliquots were then removed and counted for radioactivity.

[3] = 125.0 μM peptide overnight at 37° C., then 3.0 hr de-stabilization step, FI of 0.5 or greater deemed significant

Fluorescence Index (FI) ([1]; 125.0 μM peptide, analysis did not include 3 hr de-stabilization step) | HLA-A0201 binding as judged by Fluorescence Index (FI) values [1] | Fluorescence Index (FI) [1, 3] | Sequence | Immunogenicity / epitope-specific CTL response [2]
0.2** | does not exhibit binding |  | PLYDMSLLK (CLP320) [CLP-320] | 
 | demonstrated HLA-A0201 binding | 2.7 | KLQCVDLHV (CLP316) [CLP-316, PSA derived peptide, preproprotein positions 170-178] | immunogenic and capable of eliciting an epitope-specific CTL response
 |  | 0 | DLHVISNDV [CLP-317] | 

Further lines, the sequence ahead of its results:

Sequence | Fluorescence Index (FI) ([1]; 125.0 μM peptide, analysis did not include 3 hr de-stabilization step) | HLA-A0201 binding as judged by Fluorescence Index (FI) values [1] | Fluorescence Index (FI) [1, 3] | Immunogenicity / epitope-specific CTL response [2]
DLPTQEPAL (CLP315) [CLP-315, PSA derived peptide, preproprotein positions 140-148] |  |  | 0 | 
VLVHPQWVL [CLP-314] |  | demonstrated HLA-A0201 binding | 1.1 | 
MWVPVVFL (CLP313) [CLP-313, PSA derived peptide, preproprotein positions 1-8] |  | demonstrated HLA-A0201 binding | 1.0 | 
